Reference: paper PMC4754747, “A single residue substitution accounts for the significant difference in thermostability between two isoforms of human cytosolic creatine kinase” (Scientific Reports, 2016)

Target: the molecule itself
Assay: SEC; gel filtration on Superdex 200 10/300 GL (AKTA purifier) of thermally inactivated samples; heated at 45 °C (thermal inactivation: 0.2 mg/ml enzyme in 5 mM Tris-HCl, pH 8.0, 10 min); dimer to monomers

Protein | stoichiometry N | binding result
hBBCK P36L mutant (BP36L) (enzyme, creatine kinase, brain type (B subunit), human, with P36L; Site-directed mutant of m1; details are in the Supplementary Information) not shown | 2 | 
human brain-type creatine kinase homodimer (hBBCK) (enzyme, creatine kinase, brain type (B subunit), human; wild type; also called WT hBBCK; hBCK) not shown |  | binds
